Assay results reported in US20200109188A1 (AstraZeneca / MedImmune, published 2020).
Substitutions are numbered along the chain they refer to.

B1: Antibody 11 (antibody, V domains shown)
VH: QVQLQQSGPGLVKPSQTLSLTCAISGDSVSSYNAVWNWIRQSPSRGLEWLGRTYYRSGWYNDYAESVKSRITINPDTSKNQFSLQLNSVTPEDTAVYYCARSGHITVFGVNVDAFDMWGQGTMVTVSS
VL: DIQMTQSPSSLSASVGDRVTITCRTSQSLSSYTHWYQQKPGKAPKLLIYAASSRLSGVPSRFSGSGSGTDFTLTISSLQPEDFATYYCQQSRTFGQGTKVEIK
B2: Antibody 14 (antibody, V domains shown)
VH: B1 VH with Y32N, G58K, M123T
VL: B1 VL
B3: Antibody 15 (antibody, V domains shown)
VH: B1 VH with Y32N, G58K, M123T
VL: B1 VL with L55G
B4: Antibody 13 (antibody, V domains shown)
VH: B1 VH
VL: B1 VL with T33D
B5: Antibody 12 (antibody, V domains shown)
VH: B1 VH
VL: B1 VL with L55G

Columns and labels:
[1] = target: HA of ca A/Vietnam/1203/04 (H5N1) virus (influenza A virus); experiment: cell-based or functional assay
[2] = target: HA of ca A/Japan/57 (H2N2) virus (influenza A virus); experiment: cell-based or functional assay
[3] = target: HA of ca A/mallard/Alberta/89/85 (H6N2) virus (influenza A virus); experiment: cell-based or functional assay
[4] = target: HA of ca A/Hong Kong/213/03 (H5N1) virus (influenza A virus); experiment: cell-based or functional assay
[5] = target: HA of ca A/Brit. Columbia/CN-6/04 (H7N3-LP) virus (influenza A virus); experiment: cell-based or functional assay
[6] = target: HA of ca A/teal/Hong Kong/W312/97 (H6N1) virus (influenza A virus); experiment: cell-based or functional assay
[7] = target: HA of ca A/chicken/Hong Kong/G9/97 (H9N2) virus (influenza A virus); experiment: cell-based or functional assay
[8] = target: HA of A/New Jersey/8/76 (H1N1) virus (influenza A virus); experiment: cell-based or functional assay
[9] = target: HA of ca A/Netherlands/219/03 (H7N7) virus (influenza A virus); experiment: cell-based or functional assay
[10] = target: HA of ca A/swine/Missouri/06 (H2N3) virus (influenza A virus); experiment: cell-based or functional assay
[11] = target: HA of ca A/Anhui/1/13 (H7N9) virus (influenza A virus); experiment: cell-based or functional assay
[12] = target: HA subtype H10 (A/chicken/Germany/N49 (H10N7)) on HEK cells (influenza A virus, UniProt P12581 17-561); experiment: flow cytometry, HA-transfected HEK cells, 5 ug/ml antibody
[13] = target: HA subtype H14 (A/mallard/Astrakhan/263/82 (H14N5)) on HEK cells (influenza A virus, UniProt P26136 18-568); experiment: as above
[14] = target: HA subtype H12 (A/duck/Alberta/60/76 (H12N5)) on HEK cells (influenza A virus, UniProt P03446 17-564); experiment: as above
[15] = target: HA subtype H13 (A/gull/Maryland/704/77 (H13N6)) on HEK cells (influenza A virus, UniProt P13103 19-566); experiment: as above
[16] = target: HA subtype H4 (A/duck/Czechoslovakia/56 (H4N6)) on HEK cells (influenza A virus, UniProt P19696 17-564); experiment: as above

Binder	Neutralization IC50, H5-VM04 [1]	Neutralization IC50, H2-JP57 [2]	Neutralization IC50, H6-AB85 [3]	Neutralization IC50, H5-HK03 [4]	Neutralization IC50, H7-BC04 [5]	Neutralization IC50, H6-HK97 [6]	Neutralization IC50, H9-HK97 [7]	Neutralization IC50, H1-NJ76 [8]	Neutralization IC50, H7-NLD03 [9]	Neutralization IC50, H2-MO06 [10]	Neutralization IC50, H7-ANU13 [11]	binding result [12]	binding result [13]	binding result [14]	binding result [15]	binding result [16]
B1	0.57 µg/mL	0.31 µg/mL	0.24 µg/mL	0.21 µg/mL	0.71 µg/mL	0.4 µg/mL	0.36 µg/mL	0.13 µg/mL	0.94 µg/mL	0.6 µg/mL	–	–	–	–	–	–
B2	0.33 µg/mL	0.67 µg/mL	0.26 µg/mL	0.21 µg/mL	0.86 µg/mL	0.26 µg/mL	0.44 µg/mL	0.11 µg/mL	1.16 µg/mL	0.65 µg/mL	2.12 µg/mL	–	–	–	–	–
B3	0.28 µg/mL	0.33 µg/mL	0.19 µg/mL	0.05 µg/mL	1.25 µg/mL	0.33 µg/mL	0.35 µg/mL	0.25 µg/mL	1.3 µg/mL	0.83 µg/mL	–	–	–	–	–	–
B4	0.56 µg/mL	0.47 µg/mL	0.29 µg/mL	0.17 µg/mL	0.96 µg/mL	0.55 µg/mL	0.29 µg/mL	0.12 µg/mL	2.45 µg/mL	0.57 µg/mL	–	–	–	–	–	–
B5	0.31 µg/mL	0.35 µg/mL	0.32 µg/mL	0.17 µg/mL	0.78 µg/mL	0.45 µg/mL	0.31 µg/mL	0.12 µg/mL	0.83 µg/mL	0.53 µg/mL	2.56 µg/mL	binds	binds	binds	binds	binds
